Laboratory results taken from patent US20170128564A1, “P[…] FROM gp41, A VACCINE COMPOSITION COMPRISING SAID POLYPEPTIDE, AND USES FOR TREATING AN INFECTION BY AN HIV VIRUS IN AN INDIVIDUAL” (INSTITUT NATIONAL DE LA SANTE ET DE LA RECHERCHE MEDICALE …, priority 2003, published 2017).
No end group written: not given here.

How the values were obtained:
CD4+ T cells = assay: NK cytotoxicity 51Cr-release assay, treated CD4+ T cells as targets of activated autologous purified NK cells; assay type: cell-based, human
Protocol: NK lines were generated from PBMC, and then purified using the StemSep cell separation system and the NK cell enrichment antibody cocktail (StemCell technologies). NK purified cells were cultured in MyeloCult H5100 medium (StemCell technologies) supplemented with 100 units rhlL-2 (Boheringer). The purity of these preparations was evaluated by flow cytometry after staining with anti-CD3 (BD), anti-CD56 (BD), anti-NKp44, and anti-NKp46 mAbs.
The cytololytic activity was assayed in 4-h ^51Cr-release assay as previously described. Briefly, the target cells were labeled for 2-h at 37° C. with 100 μCi per 10^6 cells Na^51Cr (Amersham), and washed twice with culture medium. The target cells were then distributed in round-bottomed 96-well microtiter plates (4×10^3 cells per well), and the effector cells were added at several E/T ratio. The plates were incubated 4-h at 37° C. The supernatant were then collected and ^51Cr-release was measured in a gamma counted. In experiments in which Abs were included, these were added to final concentration of 20 μg/ml. The relative specific ^51Cr-release was calculated as previously described. Values for spontaneous ^51Cr-release, which are deducted in the calculation, were between 10 and 20% of the total incorporated radioactivity. The results are presented after subtraction of the nonspecific lysis obtained with control targets. […]

[1] = tested on: NKp44L expression on purified CD4+ T cells; assay type: cell-based, human; conditions: preliminary experiment with the 6-mers peptide
NKp44L = biological target: T1, NKp44L (Homo sapiens, UniProt Q8IZD2); assay: Staining of U2 cells with #7.1 mAb, flow cytometry, and competition with NCR-Ig fusion proteins; assay type: binding; conditions: HIV-1-infected U2 cells previously stained with fusion protein (FIG. 8C)
T1 construct: endogenous in cells; host or cells: U2 cells, uninfected or chronically infected with HIV-1 Sf2
T1 sequence (Q8IZD2 1-1168 isoform Q8IZD2-8 K496E/T516A): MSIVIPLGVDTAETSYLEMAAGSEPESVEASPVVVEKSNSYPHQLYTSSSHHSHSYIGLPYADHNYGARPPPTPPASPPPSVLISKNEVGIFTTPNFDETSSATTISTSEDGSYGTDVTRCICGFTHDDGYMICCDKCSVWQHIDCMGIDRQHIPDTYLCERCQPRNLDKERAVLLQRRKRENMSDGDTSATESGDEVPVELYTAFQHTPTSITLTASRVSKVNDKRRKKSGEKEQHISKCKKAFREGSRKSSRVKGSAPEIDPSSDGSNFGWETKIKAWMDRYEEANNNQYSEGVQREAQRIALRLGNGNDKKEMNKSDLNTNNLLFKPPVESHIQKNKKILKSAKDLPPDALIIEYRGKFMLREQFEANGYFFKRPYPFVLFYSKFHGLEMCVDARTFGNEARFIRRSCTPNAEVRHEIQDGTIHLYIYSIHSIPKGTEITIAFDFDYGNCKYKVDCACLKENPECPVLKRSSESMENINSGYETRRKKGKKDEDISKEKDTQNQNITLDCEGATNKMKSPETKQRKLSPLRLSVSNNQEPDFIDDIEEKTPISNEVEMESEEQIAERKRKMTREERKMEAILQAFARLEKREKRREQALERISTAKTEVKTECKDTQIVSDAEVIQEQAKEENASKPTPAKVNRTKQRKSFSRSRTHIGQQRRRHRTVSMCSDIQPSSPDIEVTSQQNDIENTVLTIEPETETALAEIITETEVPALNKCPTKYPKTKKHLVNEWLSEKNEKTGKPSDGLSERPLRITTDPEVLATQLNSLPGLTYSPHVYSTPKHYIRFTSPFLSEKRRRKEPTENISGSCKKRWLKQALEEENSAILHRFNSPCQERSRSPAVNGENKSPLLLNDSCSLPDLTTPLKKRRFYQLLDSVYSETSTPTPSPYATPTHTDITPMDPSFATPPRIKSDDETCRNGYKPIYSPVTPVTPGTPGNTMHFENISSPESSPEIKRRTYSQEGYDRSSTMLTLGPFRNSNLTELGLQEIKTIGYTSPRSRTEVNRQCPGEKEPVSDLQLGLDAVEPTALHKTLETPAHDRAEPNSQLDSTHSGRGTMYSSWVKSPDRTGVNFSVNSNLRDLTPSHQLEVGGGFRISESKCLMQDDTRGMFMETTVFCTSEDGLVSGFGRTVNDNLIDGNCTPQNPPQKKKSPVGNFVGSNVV
Protocol: 8B) Cell surface expression of NKp44L detected with #7.1 mAb. Uninfected (UI) and HIV-1-infected (Sf2) U2 cells were incubated with 1 μg/ml of #7.1 mAb (black line) or with the IgM isotype control (dotted line) and analyzed by flow cytometry.
8C) #7.1 mAb inhibits NKp44-Ig binding. HIV-1-infected U2 cells that had previously been stained with either […] of NKp44-Ig fusion protein (lower panel; black line) or control NKp46-Ig fusion protein (upper panel; black line) were incubated with #7.1 mAb (gray line) or IgM isotype control (dotted line) for 1!h at 4° C. and washed twice in 1% PBS-BSA. The cells were then analyzed by flow cytometry. Percentage of cells expressing NKp44L, after NCR-Ig incubation, is noted.
Anti-NKp44 (44/8; IgG1) and anti-NKp44L mAb (#7.1; IgM) were obtained from 5-weekold BalB/c mice immunized with the ClonaCell-HY hybridoma cloning kit, according to the manufacturer's instructions (StemCell Technologies Inc.). The anti-mouse-peroxidase hybridoma screening reagent (Roche) and ELISA were used to select antibodies. Anti-NKp44 (44/8) mAb was prepared by immunizing the mice with NKp44-Ig protein, after specific deletion of the IgG1 human Fc fragment. […] All hybridomas were analyzed with 51Cr cytotoxic assays with untreated or acid-treated 721.221 cells as targets, and the specificity of the anti-NKp44 hybridoma was analyzed by ELISA with different fusion proteins. […]

PWASNASWSNKSLDDIW [gp41-C146]
NK cytotoxic activity (CD4+ T cells; single peptides of pool C 5 μg/ml, two days, E/T ratio 40/1 (FIG. 4A)): strongly increased

SWSNKS [NH2-SWSNKS-COOH, SWSNKS]
NK cytotoxic activity (CD4+ T cells; preliminary experiment with the 6-mers peptide): any increased | cell surface expression of NKp44L [1]: any increased

B1: NKp44-Ig fusion protein: NKp44-Ig NCR-Ig fusion protein (protein)
chain: QSKAQVLQSVAGQTLTVRCQYPPTGSLYEKKGWCKEASALVCIRLVTSSKPRTMAWTSRFTIWDDPDAGFFTVTMTDLREEDSGHYWCRIYRPSDNSVSKSVRFYLVVSPASASTQTPWTPRDLVSSQTQTQSCVPPTAGARQAPESPSTIPVPSQPQNSTLRPGPAAPIA
modifications: left off: a dimerising Fc or GST
effect of NCR-Ig fusion protein on #7.1 mAb staining (NKp44L): Inhibition
